Assay in all cases: cell_activity; reversed DR/guide order
What all share (conditions): tags: NLS fusion

The target in one data set is T1, Cas13m.3 (uncultured Bacteroidetes bacterium).
T1 chain: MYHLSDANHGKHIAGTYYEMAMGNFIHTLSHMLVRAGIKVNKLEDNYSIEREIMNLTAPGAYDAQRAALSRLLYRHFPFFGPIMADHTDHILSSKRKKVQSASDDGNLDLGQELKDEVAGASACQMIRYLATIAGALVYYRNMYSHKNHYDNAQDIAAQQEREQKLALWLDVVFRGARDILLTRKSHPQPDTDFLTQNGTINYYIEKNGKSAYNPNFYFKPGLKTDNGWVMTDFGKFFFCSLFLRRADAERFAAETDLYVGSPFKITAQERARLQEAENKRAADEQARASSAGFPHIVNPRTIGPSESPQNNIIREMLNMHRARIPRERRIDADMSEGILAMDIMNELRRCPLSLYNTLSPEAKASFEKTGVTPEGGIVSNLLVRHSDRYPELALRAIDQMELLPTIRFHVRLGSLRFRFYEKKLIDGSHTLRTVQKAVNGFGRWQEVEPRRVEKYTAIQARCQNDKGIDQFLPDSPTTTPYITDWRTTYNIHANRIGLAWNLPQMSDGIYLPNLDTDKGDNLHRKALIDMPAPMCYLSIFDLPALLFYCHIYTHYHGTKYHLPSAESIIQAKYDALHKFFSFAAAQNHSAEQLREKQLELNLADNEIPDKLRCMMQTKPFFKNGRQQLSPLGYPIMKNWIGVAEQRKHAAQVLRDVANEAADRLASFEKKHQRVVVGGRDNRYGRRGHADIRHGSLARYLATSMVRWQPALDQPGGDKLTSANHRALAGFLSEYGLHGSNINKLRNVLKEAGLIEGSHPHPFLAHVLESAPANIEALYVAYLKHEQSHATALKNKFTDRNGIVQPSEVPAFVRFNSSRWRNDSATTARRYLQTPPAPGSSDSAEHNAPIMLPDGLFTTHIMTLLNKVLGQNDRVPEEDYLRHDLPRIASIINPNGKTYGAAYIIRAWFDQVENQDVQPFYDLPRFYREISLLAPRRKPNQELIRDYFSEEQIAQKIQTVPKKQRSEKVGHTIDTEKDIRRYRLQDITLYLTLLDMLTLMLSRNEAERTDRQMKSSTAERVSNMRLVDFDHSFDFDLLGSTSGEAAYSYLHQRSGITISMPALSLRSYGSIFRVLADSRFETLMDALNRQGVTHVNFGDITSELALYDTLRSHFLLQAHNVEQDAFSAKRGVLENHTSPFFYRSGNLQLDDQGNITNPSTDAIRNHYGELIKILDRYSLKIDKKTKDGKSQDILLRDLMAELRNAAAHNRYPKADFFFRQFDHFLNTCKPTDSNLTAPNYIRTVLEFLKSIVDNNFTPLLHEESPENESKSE
The method, then: (§1) 293T-AQp1 cells were transfected with the verification vectors targeting the endogenous gene AQp1 mRNA of Cas13 m.2, Cas13 m.3, Cas13 m.5, CasRfg.2, Cas13 m.2-r, Cas13 m.3-r, Cas13 m.5-r, and CasRfg.2-r, and a control plasmid (which was the same as the verification vector plasmid targeting the endogenous gene AQp1 mRNA of CasRx in the aforementioned Example 5) at 800 ng in a 24-well plate. The negative control group was transfected with the CasRx-BpiI plasmid in the aforementioned Example 5.
(§2) The transfection method was as follows: [0296] 1. The cells were digested by trypsin (0.25% of Trypsin, EDTA, Thermo, 11058021), counted, and plated into a 24-well plates at 2×10⁵ cells according to 500 uL per well. [0297] 2. For each transfected sample, the complex was prepared according to the following steps: [0298] a. each well of the 24-well plate into which the cells were added, were added with 50 uL of serum-free Opti-MEM I (Thermo, 25200056) reduced serum medium for dilution of the aforementioned plasmid DNA, and mixed gently; [0299] b. it was gently mixed with Lipofectamine 2000 (Thermo, 11668019) before use, and then 1.8 uL of the Lipofectamine 2000 was diluted in each well, i.e., in 50 uL of the Opti-MEM I medium. It was incubated at room temperature for 5 minutes. Note: it was continued to perform step c within 25 minutes; [0300] c. after incubation for 5 minutes, the diluted DNA was combined with the diluted Lipofectamine 2000. They were gently mixed and incubated at room temperature for 20 minutes (the solution might be cloudy visually). Note: the complex was stabilized at room temperature for 6 hours.
(§3) At 72 h after transfection, the cells were subjected to RNA extraction with a SteadyPure Universal RNA Extraction Kit AG21017 kit, and the RNA concentration was detected with an ultramicro spectrophotometer. The RNA product was reverse transcribed by using an Evo M-MLV Mix Kit with gDNA Clean for qPCR AG11728 reverse transcription kit, and the reverse transcribed product was detected by using a SYBR Green Premix Pro Taq HS qPCR Kit (Low Rox Plus) AG11720 qPCR kit.

In another data set the target is T2, CasRfg.2 (Cas13d) (metagenome).
T2 chain: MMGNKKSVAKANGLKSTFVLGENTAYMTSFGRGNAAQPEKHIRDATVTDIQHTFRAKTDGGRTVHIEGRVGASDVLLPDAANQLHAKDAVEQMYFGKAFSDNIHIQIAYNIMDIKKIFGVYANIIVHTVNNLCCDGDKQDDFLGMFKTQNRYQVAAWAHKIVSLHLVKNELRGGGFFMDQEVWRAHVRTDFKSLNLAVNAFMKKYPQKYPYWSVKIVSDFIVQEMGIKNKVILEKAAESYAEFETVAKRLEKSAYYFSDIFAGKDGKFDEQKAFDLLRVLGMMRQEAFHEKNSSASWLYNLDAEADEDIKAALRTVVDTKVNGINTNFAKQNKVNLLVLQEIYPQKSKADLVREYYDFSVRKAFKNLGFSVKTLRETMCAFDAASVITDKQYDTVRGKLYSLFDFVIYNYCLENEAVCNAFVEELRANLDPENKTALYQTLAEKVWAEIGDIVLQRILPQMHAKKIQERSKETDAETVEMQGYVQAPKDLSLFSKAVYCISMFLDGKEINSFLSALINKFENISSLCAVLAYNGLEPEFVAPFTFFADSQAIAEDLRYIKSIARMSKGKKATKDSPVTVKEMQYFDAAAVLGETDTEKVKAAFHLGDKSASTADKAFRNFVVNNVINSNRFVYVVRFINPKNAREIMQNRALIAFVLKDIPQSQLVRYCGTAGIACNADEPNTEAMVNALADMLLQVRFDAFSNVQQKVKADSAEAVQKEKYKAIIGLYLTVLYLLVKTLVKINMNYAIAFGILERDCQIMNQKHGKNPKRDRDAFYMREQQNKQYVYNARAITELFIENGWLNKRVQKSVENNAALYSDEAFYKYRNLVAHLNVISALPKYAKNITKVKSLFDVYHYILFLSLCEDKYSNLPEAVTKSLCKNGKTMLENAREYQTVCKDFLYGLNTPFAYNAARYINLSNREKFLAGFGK
The procedure:
as §1, §2, §3

For a further data set, the target named is T3, Cas13m.2 (metagenome).
T3 chain: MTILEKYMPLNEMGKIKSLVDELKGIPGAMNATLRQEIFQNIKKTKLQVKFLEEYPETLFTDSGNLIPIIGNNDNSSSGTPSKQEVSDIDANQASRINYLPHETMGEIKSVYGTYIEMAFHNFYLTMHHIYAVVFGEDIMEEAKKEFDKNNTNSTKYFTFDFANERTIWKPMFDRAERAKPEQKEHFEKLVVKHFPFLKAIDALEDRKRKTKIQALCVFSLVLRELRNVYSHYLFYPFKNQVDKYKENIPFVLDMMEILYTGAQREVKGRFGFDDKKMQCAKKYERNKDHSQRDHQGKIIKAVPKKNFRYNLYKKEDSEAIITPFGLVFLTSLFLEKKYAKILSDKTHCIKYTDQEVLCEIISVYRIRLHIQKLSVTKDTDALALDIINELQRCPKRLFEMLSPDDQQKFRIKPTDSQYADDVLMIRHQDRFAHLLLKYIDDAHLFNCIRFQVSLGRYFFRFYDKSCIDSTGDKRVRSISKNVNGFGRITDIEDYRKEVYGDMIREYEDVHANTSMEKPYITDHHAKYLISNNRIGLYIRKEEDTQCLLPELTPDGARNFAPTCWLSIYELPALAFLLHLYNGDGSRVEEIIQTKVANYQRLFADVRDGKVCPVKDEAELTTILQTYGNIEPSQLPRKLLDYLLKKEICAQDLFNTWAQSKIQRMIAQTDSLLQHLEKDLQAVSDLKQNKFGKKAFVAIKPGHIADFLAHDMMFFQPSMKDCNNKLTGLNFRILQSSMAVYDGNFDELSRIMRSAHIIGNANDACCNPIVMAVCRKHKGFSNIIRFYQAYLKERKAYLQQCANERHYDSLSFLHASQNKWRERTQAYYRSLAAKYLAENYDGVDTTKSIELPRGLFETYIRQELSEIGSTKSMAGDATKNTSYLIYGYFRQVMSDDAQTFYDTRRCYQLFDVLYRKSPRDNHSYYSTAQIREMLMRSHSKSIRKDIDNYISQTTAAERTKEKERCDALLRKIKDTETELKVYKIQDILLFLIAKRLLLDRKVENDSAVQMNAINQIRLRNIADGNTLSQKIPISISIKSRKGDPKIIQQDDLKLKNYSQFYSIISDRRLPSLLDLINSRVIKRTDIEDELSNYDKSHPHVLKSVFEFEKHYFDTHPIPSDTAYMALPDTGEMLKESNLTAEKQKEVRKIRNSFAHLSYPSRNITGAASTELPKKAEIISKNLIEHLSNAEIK
The procedure:
as §1, §2, §3

The target of the next data set is T4, Cas13m.5 (Bacteroidetes bacterium).
T4 chain: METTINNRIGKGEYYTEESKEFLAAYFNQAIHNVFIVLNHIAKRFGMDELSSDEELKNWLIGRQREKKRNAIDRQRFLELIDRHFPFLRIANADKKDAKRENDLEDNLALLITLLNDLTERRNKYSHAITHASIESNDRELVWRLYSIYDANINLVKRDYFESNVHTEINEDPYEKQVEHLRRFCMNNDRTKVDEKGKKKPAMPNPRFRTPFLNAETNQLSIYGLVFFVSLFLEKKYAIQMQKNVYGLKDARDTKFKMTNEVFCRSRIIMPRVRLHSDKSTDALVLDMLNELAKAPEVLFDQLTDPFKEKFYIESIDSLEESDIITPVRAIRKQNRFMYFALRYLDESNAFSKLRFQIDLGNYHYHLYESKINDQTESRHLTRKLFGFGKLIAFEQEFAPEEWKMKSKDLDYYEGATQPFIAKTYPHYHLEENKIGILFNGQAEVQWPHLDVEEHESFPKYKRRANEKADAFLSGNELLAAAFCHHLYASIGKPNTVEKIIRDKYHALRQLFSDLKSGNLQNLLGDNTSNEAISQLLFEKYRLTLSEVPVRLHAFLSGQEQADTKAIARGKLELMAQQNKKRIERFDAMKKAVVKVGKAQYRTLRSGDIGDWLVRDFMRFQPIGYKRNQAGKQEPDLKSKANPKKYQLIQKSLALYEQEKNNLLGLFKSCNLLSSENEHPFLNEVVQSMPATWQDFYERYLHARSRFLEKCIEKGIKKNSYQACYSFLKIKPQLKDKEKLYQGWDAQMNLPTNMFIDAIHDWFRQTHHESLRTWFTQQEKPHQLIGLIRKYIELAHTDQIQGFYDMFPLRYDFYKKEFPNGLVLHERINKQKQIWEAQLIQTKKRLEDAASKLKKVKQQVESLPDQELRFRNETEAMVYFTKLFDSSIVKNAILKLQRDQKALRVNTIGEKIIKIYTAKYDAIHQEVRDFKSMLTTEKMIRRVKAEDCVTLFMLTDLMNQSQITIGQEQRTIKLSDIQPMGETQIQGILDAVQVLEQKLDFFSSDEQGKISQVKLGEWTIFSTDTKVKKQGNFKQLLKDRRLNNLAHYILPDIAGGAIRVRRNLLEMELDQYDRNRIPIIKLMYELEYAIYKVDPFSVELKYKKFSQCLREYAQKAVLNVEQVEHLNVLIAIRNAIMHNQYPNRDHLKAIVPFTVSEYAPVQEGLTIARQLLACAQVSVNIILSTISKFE
The procedure:
as §1, §2, §3

B1: AQp1 gRNA Cas13m.3-r (DR-guide) ; AQp1 mRNA site (20 nt guide) (ssRNA ; ssRNA)
RNA 1: GUUGUAGAAGCCGUUCAUUCGGGACGGUAUGACAACGAAGACAAAGAGGGUCGUGG
RNA 2: CCACGACCCUCUUUGUCUUC
Regarding B1, in the data set with Cas13m.3, the activity turned out to be 0.78 relative mRNA level.

B2: AQp1 gRNA CasRfg.2-r (guide-DR) ; AQp1 mRNA site (20 nt guide) (ssRNA ; ssRNA)
RNA 1: GAAGACAAAGAGGGUCGUGGGGUUUUACACCCGUGUAAAACUACACAGUUCUAAAAC
RNA 2: CCACGACCCUCUUUGUCUUC
As to B2, the activity in the data set with CasRfg.2 (Cas13d) came to 0.67 relative mRNA level.

B3: AQp1 gRNA Cas13m.2-r (DR-guide) ; AQp1 mRNA site (20 nt guide) (ssRNA ; ssRNA)
RNA 1: GUUGUAGAUGACCUCGUUUUGGAGGGGAAACACAACGAAGACAAAGAGGGUCGUGG
RNA 2: CCACGACCCUCUUUGUCUUC
B3 showed an activity with Cas13m.2 of 0.83 relative mRNA level.

B4: AQp1 gRNA Cas13m.5-r (DR-guide) ; AQp1 mRNA site (20 nt guide) (ssRNA ; ssRNA)
RNA 1: GUUGUGUGUGCCUUUCAAAUUGAAGGCGUUCCCAACGAAGACAAAGAGGGUCGUGG
RNA 2: CCACGACCCUCUUUGUCUUC
For the molecule B4, in the data set with Cas13m.5, the activity was 0.74 relative mRNA level.

Source of the values: patent publication US20240279630, “ISOLATED CAS13 PROTEIN AND USE THEREOF” (GUANGZHOU REFORGENE MEDICINE CO., LTD., published 2024).
